Experimental data published in the nanobody polyreactivity screen of Harvey et al. (2022).

assay: yeast display, Sf9 membrane polyspecificity reagent, FACS + sequencing; frameworks hold sequencing errors
Outline: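 Galactose-induced (36–48 hours) yeast carrying a synthetic nanobody display library were exposed to 10% biotinylated, detergent-solubilized Sf9 membrane reagent at 4 °C for 1 hour. FACS followed streptavidin microbead enrichment, using low and high (top ~1%) gates for expression (anti-HA) and reagent binding (streptavidin). Colony PCR, MiSeq 2 × 250 sequencing and CDR-length filtering followed. Labels for polyreactivity reflect the gate of origin.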

Sequence | polyreactivity (PSR sort gate)
QVQLVESGGGLVQAGGSLRLSCAASGSTFYRNAMGWYRQAPGKERELVAAINSTDSTNYADSVKGLFTISRDNAKNTVYLQMNSLKPEDTAVYYCAAVGDNLATAEYDYWGQGTQVTLSS | low polyreactivity
QVQLVESGGGLVQAGGSLRLSCAASGSTFYRNAMGWYRQAPGKERELVAAISRGSRTYYADSVKGRFTISRDNAKNTVYLQMNSLKPEDTAVYNCAARAGARDTLHDYWGQGTQVTVSS | high polyreactivity
QVQLVESGGGLVQAGGSLRLSCAASGSTFYRNAMGWYRQAPGKERELVAVISISDGSTYADSVKGRFTISRDNAKNTVYLQMNSLKPEDTAVYYCAKVLNPLDYYDFDYWGQGTQVTVSS | low polyreactivity
QVQLVESGGGLVQAGGSLRLSCAASGSTFYRYAMAWYRPAPGKERELVAAITRGGGRTYYADSVKGRFTISRDNAKNTVYLQMNSLKPEDTAVYYCNSASPYYDSWGQGTQVTVSS | high polyreactivity
QVQLVESGGGLVQAGGSLRLSCAASGSTFYRYAMGWYRQAPGKERELVAAISRGGGRTNYADSVKGRFTISRDNAKNTVYLQMNSLKPEDTAVYYCAADDTYTRYDYWGQGTQVTVSS | high polyreactivity
QVQLVESGGGLVQAGGSLRLSCAASGSTFYSNAMGWYRQAPGKERELVAAINYSGGRTYYADSVKGRFTLSRDNAKNTVYLQMNSLKPEDTAVYYCNAQFYNVRGYYIGEYWGQGTQVTVSS | high polyreactivity
QVQLVESGGGLVQAGGSLRLSCAASGSTFYSYAIGWYRQAPGKERELVADISYSDGSTYYADSVKGRFTISRDYAKNTVYLQMNSLKPEDTAVYYCDAYALSYFKIMDYWGQGTQVTVSS | low polyreactivity
QVQLVESGGGLVQAGGSLRLSCAASGSTFYSYAMGWSRQAPGKERELVARISGSGGSTYYADSVKGRFTISRDTAKNTVYLQMNSLKPEDPAVYYCAADDIYKYYQYYAFPYYRYDYWGQGTQVTVSS | low polyreactivity
QVQLVESGGGLVQAGGSLRLSCAASGSTFYSYAMGWYRQAPGKERELVAAISWDGGLTYYADSVKGRFTISRDTAKNTVYLQMNSLKPEDTAVYYCAAAYPTYRHYYWGQGTQVTVSS | low polyreactivity
QVQLVESGGGLVQAGGSLRLSCAASGSTFYSYAMGWYRQAPGKERELVAAITKGGGSTYYADSVKGRFTISRDNAKNTVYLQMNSLKPEDTAVYYCAAPGLYWYYTRSGYDYWGQGTQVTVSS | high polyreactivity
QVQLVESGGGLVQAGGSLRLSCAASGSTFYSYVMGWYRQAPGKERELVAVISNDGSTNYADSVKGRFTISRDNAKNTVYLQMNSLKPEDTAVYYCNAEWTRDFYEYDYWGQGTQVTVSS | low polyreactivity
QVQLVESGGGLVQAGGSLRLSCAASGSTFYTNAMGLYRQAPGKERELVAAISWSAGSTYYADSVKGRFTISRDNAKNTVYLQMNSLKPEDTAVYYCAAYYWYKWGYKYGYWGQGTQVTVSS | high polyreactivity
QVQLVESGGGLVQAGGSLRLSCAASGSTFYTNAMGWYTQAPGKERELVAAISGSGGSTYYADSVKGRFTISRDNAKNTVYLQMNSLKPEDTAVYYCAARSRYYDTRFDYWGQGTQVTVSS | low polyreactivity
QVQLVESGGGLVQAGGSLRLSCAASGSTFYTNTMGWYRQAPGKERELVADINGSGGSTYYADSVKGRFTISRDNAKNTVYLQMNSLKPEDTAVYYCAAGSWQVAIRYDYWGQGTQVTVSS | low polyreactivity
QVQLVESGGGLVQAGGSLRLSCAASGSTFYTYAMGWYRQAPGKEMELVAAIRSAGSTYYADSVKGRFTISRDNAKNTVYLQMNSLKPEDTAVYYCNTVARSSVGYEYWGQGTQVTVSS | high polyreactivity
QVQLVESGGGLVQAGGSLRLSCAASGSTFYTYAMGWYRQAPGKERELVAAITSGGSTYYADSVKGRFTISRDNAKNTVYLQMNSLKPEDTAVYYCAARPYPHSAYEGDYWGRGTQVTVSS | low polyreactivity
QVQLVESGGGLVQAGGSLRLSCAASGSTFYTYAMGWYRQAPGKERELVAAITYSGGTTYYADSVKGRFTISRDNAKNTVYLQMNSLKPEDTAVYYCNTRSYYYSDDYWGQGTQVTVSS | low polyreactivity
QVQLVESGGGLVQAGGSLRLSCAASGSTFYTYDMGWYRQAPGKERELVASITSGGSTNYADSVKGRFTISRDNAKNTVYLQMNSLKPEDTAVYYCAVGTYTIYSGTLYDYKYYWGQGTQVTVSS | low polyreactivity
QVQLVESGGGLVQAGGSLRLSCAASGSTFYTYTMGWYRQAPGKERELVAAISSRGVSTYYADSVKGRFTISRDNAKNTVYLQMNSLKPEDTAVYYCAVSRIVDFGQKMYYWGQGTQVTVSS | high polyreactivity
QVQLVESGGGLVQAGGSLRLSCAASGSTFYTYTMGWYRQAPGKERELVAAISSSGGDTYYADSVKGRFTISRDNAKNTVYLQMNSLKPEDTAVYYCAALGAFPSLEFDYWGQGTQVTVSS | low polyreactivity
QVQLVESGGGLVQAGGSLRLSCAASGSTFYVNAMGSYRKAPGKEMEFVAAITWNSGSTYYADSVKGRFTISRDNANYTVYLQMNSLKPEDTAVYYCAAVLSVRDYGYDYWGQGTQVTVSS | low polyreactivity
QVQLVESGGGLVQAGGSLRLSCAASGSTFYVNAMGWYRQAPGKERELVAAITKSGGNTYYADSVKGRFTISRDNAKNTVYLQMNSLKPEDTAVYYCAKKYPRDMDYWGQGTQVTVSS | high polyreactivity

Sequence | polyreactivity (PSR sort gate)
QVQLVESGGGLVQAGGSLRLSCAASGSTFYVNAMGWYRQAPGKERELVARITENGGITYYADSVKGRFTISRDNAKNTVYLQMNSLKPEDTAVYYCNTVQYRNEMGYWGQGTQVTVSS | high polyreactivity
QVQLVESGGGLVQAGGSLRLSCAASGSTFYVNAMGWYRQAPGKERELVATISSGGSTNYADSVKGRFTISRDNAKNTVYLQMNSLKPEDTAVYYCAKEYGSIIPYDYWGQGTQVSVSS | low polyreactivity
QVQLVESGGGLVQAGGSLRLSCAASGSTFYVNDMGWYRQAPGKERELVATISSGSSTYYADSVKGRFTISRDNAKNTVYFQMNSLKPEDTAVYYCAADGVAEEGFDAPYDYWGQGTQVTVSS | low polyreactivity
QVQLVESGGGLVQAGGSLRLSCAASGSTFYVNTMGWYRQAPGKERELVAAITDSGVGTYADSVKGRFTISRDNAKNTVYLQMNSLKPEDTAVYYCAADGVTRDYDYWGQGTQVTVSS | low polyreactivity
QVQLVESGGGLVQAGGSLRLSCAASGSTFYVYAMGVYRQAPGKERELVAAIRGGGSTNYADSVKGRFTISRDNAKNTVYLQMNSLKPEDTAVYYCAARYRSLRYRPSGYSYNYWGQGTQVTVSS | high polyreactivity
QVQLVESGGGLVQAGGSLRLSCAASGSTFYVYAMGWYRKAPGKEREFVAVITTSGGTTYYADSVKGRFTISRDNAKNTVYLQMNSLKPEDTAVYYCNAGVGYYSLPYDYWGQGTQVTVSS | low polyreactivity
QVQLVESGGGLVQAGGSLRLSCAASGSTFYVYAMGWYRQAPGKDRELVAAITFSGGSTYADSVKGRFTISRDNAKNTVYLQMNSLKPEDTAVYYCATDERGRYTVVYVDEFLYDYWGQGTQVTVSS | low polyreactivity
QVQLVESGGGLVQAGGSLRLSCAASGSTFYVYAMGWYRQAPGKERELVAAIDRGSSTYADSVKGRFTISRDNAKNTVYLQMNSLKPEDTAVYYCAAEKERDEEYDYWGQGTQVTVSS | low polyreactivity
QVQLVESGGGLVQAGGSLRLSCAASGSTFYVYAMGWYRQAPGKERELVAAITSGDDTNYADSVKGRFTISRDNAKNTVYLQMNSLKPEDPAVYYCAAEAVGYGSPRGYYWYDYWGQGTQVTVSS | high polyreactivity
QVQLVESGGGLVQAGGSLRLSCAASGSTFYVYAMGWYRQAPGKERELVAAITSGSSTYADSVKGRFTISRDNAKNTVYLQMNSLKPEDTAVFYCNALSRTAWSYYLYPSTPFDYWGQGTQVTVSS | low polyreactivity
QVQLVESGGGLVQAGGSLRLSCAASGSTFYVYDMGWYRQAPWKERELVAAISSGAGSTYYADSVKGRFTSSRDNAKNTVYLKLNSLKRKIPRSITALLFTVNGGGSRSHDYWAQGTQVTVSS | low polyreactivity
QVQLVESGGGLVQAGGSLRLSCAASGSTFYWNALGWYRQAPGKERELVADIDGRGGSTYYADSVKGRFTISRDNAKNTVYLQMNSLKPEDTAVYYCAARAPFLSVPSELDYWGQGTQVTVSS | low polyreactivity
QVQLVESGGGLVQAGGSLRLSCAASGSTFYWNGMGWYRQAPGKERELVAAITKSGSRTYYADSVKGRFTISRDNAKNTVYLQMNSLKPEDTAVYYCAAVNYIYTGGGTYYYWGQGTQVTVSS | high polyreactivity
QVQLVESGGGLVQAGGSLRLSCAASGSTFYWYAMGWYRQAPGKEREFVAAISLGSGSTYYADSVKGRFTISRDNAKNTVYLQMNSLKPEDTAVYYCATVPWYIKVGQKRNDYWGQGTQVTVSS | high polyreactivity
QVQLVESGGGLVQAGGSLRLSCAASGSTFYYAMGWYRQAPGKEMELVASITFSTGSTYYADSVKGRFTISRDNAKNTVYLQMNSLKPEDTAVYYCATGVDTYSLTVEHDSWGQGTQVTVSS | low polyreactivity
QVQLVESGGGLVQAGGSLRLSCAASGSTFYYNAMGWYRQAPGKEREFVAAITYTGGSTDYADSVKGRFTISRDNAKNTVYLQMNSLKPEDTAVYYCAKGTYGYISTWYDYWGQGTQVTVSS | low polyreactivity
QVQLVESGGGLVQAGGSLRLSCAASGSTFYYNAMGWYRQAPGKERELVADISWRGGITYYADSVKGRFTISRDNAKNTVYLQMNSLKPEDTAVYYCAADIYPDWIYLLYGYWGQGTQVTVSS | low polyreactivity
QVQLVESGGGLVQAGGSLRLSCAASGSTFYYNAMGWYSQAPGKERELVAAISSDGSTNYADSVKGRFTISRDNAKNTVNLQMNSLKPEDTAVYYCAKKDFYFAPSPGYYRSRDYWGQGTQVTVSS | low polyreactivity
QVQLVESGGGLVQAGGSLRLSCAASGSTFYYNTLGWYRQAPGKERELVAAISRSGGSTYYADSVKGRFTISRDNAKNTVYLQMNSLKPEDTAVYYCAARIIGARNLYGYWGQGTQVTVSS | high polyreactivity
QVQLVESGGGLVQAGGSLRLSCAASGSTFYYNTMGWYRQAPGKDRELVAAITWTGGSTYYADSVKGRFTISRDNAKNTVYLQMNSLKPEDTAVYYCAAVNWRDEIYDYWGQGTQVTVSS | low polyreactivity
QVQLVESGGGLVQAGGSLRLSCAASGSTFYYNVMGWYRQAPGKEREFVAAITQRGGSTYYADSVKGRFTISRDNAKNTVYLQMNSLKPEDTAVYYCAARTRYDFDWGQGTQVTVSS | high polyreactivity
